Common to all, as to test: SPR
Assay [1] concerns the target human basigin, entire ectodomain (human) (UniProt P35613).
The target in assay [2] is gorilla basigin, entire ectodomain (gorilla).
Assay [3] concerns the target chimpanzee basigin, entire ectodomain (chimpanzee).
Assay [4] addresses gorilla basigin, entire ectodomain. The settings on record: read off a plot; for other: t1/2 (interaction half-life): parent: est. 1.9 s; for response (response units): plateau of the highest curve of four 2-fold serial dilutions (600 to 75 nM), parent: est. 92.

For orientation: pKd means the negative decadic logarithm of the Kd, by convention in mol/L. Higher therefore signals a small Kd.

pKd: −log10 of the molar value.

Chain of human basigin, entire ectodomain (human) (P35613 138-325): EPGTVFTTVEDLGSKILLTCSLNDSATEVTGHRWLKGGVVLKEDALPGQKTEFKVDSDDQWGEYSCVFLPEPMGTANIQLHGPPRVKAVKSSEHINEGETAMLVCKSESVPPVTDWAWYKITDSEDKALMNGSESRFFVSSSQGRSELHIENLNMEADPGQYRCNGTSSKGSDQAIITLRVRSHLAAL

With P. adleri RH5 (ligand), the pKd is 5.51 in assay [1] and 6.00 in assay [2].

P. billcollinsi RH5 (ligand) gave a pKd in assay [3] of 5.74.

With P. gaboni RH5 (ligand), the pKd in assay [1] is 5.44.

As for P. praefalciparum RH5 (ligand), the results for the negative logarithm of the Kd (pKd) in assay [1] and in assay [2] were 5.72 and 5.60, respectively.

Take “introgressed ancestral RH5 (reticulocyte-binding protein homologue 5) (from UniProt Q8IFM5) D148H”: in assay [4], the other: t1/2 (interaction half-life) amounted to 2.5 s and the response (response units) was found to be 190.

“introgressed ancestral RH5 (reticulocyte-binding protein homologue 5) (from UniProt Q8IFM5) H200Y”: in assay [4], the response (response units) worked out at 26.

“introgressed ancestral RH5 (reticulocyte-binding protein homologue 5) (from UniProt Q8IFM5) Q219K”: in assay [4], the other: t1/2 (interaction half-life) worked out at 2.2 s and the response (response units) turned out to be 310.

Turning to “introgressed ancestral RH5 (reticulocyte-binding protein homologue 5) (from UniProt Q8IFM5) R216T”, in assay [4], the other: t1/2 (interaction half-life) was 2.3 s and the response (response units) stood at 130.

“introgressed ancestral RH5 (reticulocyte-binding protein homologue 5) (from UniProt Q8IFM5) Y197S”: in assay [4], the other: t1/2 (interaction half-life) was 1.9 s and the response (response units) turned out to be 210.

In the case of “introgressed ancestral RH5 (reticulocyte-binding protein homologue 5) (from UniProt Q8IFM5) Y203C”, in assay [4], the other: t1/2 (interaction half-life) is 1.2 s and the response (response units) came out at 120.

Source of the values: article PMC6793842.
